The term Tmax denotes the time at which the peak concentration occurs. The term CL/F denotes clearance divided by bioavailability, as obtained after extravascular dosing. A word on the Cmax: it is the highest concentration seen after dosing.

The record followed here is patent US9259479B2, “Treatment for comorbid diabetes with chronic kidney disease” (Eli Lilly and Company, priority 2012, dated 2016).

Read-outs that look alike come from different tables or passages of the source.

The conditions of the data set: rat, in vivo.

Protocol: To induce diabetes, 10-week old male Harlan Sprague Dawley rats (Harlan, Indianapolis, Ind., USA) 250-280 g body weight, are dosed intravenously (IV) via tail vein with 45 mg/kg streptozotocin (STZ) in 0.5 M citric acid, pH 4.5, three days prior to study. […] Graphical and noncompartmental PK analyses are performed using SigmaPlot v11 (Systsat Software, Inc., San Jose, Calif.) and WinNonlin® Professional v5.3 (Pharsight®, St Louis, Mo., USA), respectively.

In the case of PEG20kDa-LysB29 human insulin, the “PK profile of the two molecules compared” value is “statistically similar”. In addition, the Tmax (male, Harlan Sprague Dawley, sc) worked out at 12 ± 0 h. The substance further returned a CL/F (male, Sprague Dawley, sc) of 1.13 ± 0.12 mL/min/kg. This substance also gave a CL/F (sc) of 1.67 ± 0.33 mL/min/kg. The substance also returned a Cmax (sc, 93 nmol/kg) of 41.1 ± 6.3 nM.
